T1: cynomolgus monkey FcγRIIa1 extracellular domain, C-terminal His-tag (cynomolgus monkey)
T1 construct: also called cyno FcγRIIa1; FcgRIIa1
T1 chain: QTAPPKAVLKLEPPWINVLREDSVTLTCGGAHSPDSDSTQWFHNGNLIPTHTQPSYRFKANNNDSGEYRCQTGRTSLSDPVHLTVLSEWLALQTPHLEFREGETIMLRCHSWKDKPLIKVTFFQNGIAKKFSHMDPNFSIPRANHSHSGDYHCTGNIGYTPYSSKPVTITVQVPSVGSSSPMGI

T2: cynomolgus monkey FcγRIIa2 extracellular domain, C-terminal His-tag (cynomolgus monkey)
T2 construct: also called cyno FcγRIIa2; FcgRIIa2
T2 chain: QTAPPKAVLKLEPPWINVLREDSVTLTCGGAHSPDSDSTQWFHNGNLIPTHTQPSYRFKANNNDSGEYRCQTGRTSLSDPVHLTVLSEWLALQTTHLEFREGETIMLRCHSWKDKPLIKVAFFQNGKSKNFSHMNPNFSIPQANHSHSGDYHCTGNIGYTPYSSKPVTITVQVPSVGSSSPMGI

T3: cynomolgus monkey FcγRIIb extracellular domain, C-terminal His-tag (cynomolgus monkey)
T3 construct: also called cyno FcγRIIb; cynoFcγRIIb
T3 chain: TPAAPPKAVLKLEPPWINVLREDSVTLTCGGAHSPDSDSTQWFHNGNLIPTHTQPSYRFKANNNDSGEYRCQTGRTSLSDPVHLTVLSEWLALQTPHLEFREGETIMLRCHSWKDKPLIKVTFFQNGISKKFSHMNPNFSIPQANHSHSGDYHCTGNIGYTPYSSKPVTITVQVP

T4: cynomolgus monkey FcγRIIa3 extracellular domain, C-terminal His-tag (cynomolgus monkey)
T4 construct: also called cyno FcγRIIa3; FcgRIIa3
T4 chain: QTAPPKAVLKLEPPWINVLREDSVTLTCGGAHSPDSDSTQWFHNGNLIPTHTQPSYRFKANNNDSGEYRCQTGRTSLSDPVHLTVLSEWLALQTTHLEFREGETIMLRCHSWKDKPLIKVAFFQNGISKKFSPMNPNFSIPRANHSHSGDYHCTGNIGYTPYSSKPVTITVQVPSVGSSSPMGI

T5: cynomolgus monkey FcγRIIIaS extracellular domain, C-terminal His-tag (cynomolgus monkey, UniProt Q8SPW2 21-206 at identity 1.00))
T5 construct: also called cyno FcγRIIIaS; FcgRIIIaS
T5 chain: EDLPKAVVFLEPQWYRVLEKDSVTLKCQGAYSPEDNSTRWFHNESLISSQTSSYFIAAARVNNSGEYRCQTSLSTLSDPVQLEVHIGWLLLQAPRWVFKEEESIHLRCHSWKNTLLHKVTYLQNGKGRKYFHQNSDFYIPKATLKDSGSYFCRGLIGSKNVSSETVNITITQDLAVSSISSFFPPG

T6: Human latent myostatin (human, UniProt O14793 25-266; O14793 267-375)
T6 construct: Biotinylated in the ELISAs; also called human myostatin latent form
T6 sequence 1: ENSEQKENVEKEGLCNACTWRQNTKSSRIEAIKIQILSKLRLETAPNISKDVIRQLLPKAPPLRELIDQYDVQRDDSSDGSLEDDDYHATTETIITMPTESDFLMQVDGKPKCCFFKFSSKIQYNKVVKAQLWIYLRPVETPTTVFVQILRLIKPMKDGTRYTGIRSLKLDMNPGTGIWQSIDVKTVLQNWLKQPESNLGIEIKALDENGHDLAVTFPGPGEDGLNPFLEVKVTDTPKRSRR
T6 sequence 2: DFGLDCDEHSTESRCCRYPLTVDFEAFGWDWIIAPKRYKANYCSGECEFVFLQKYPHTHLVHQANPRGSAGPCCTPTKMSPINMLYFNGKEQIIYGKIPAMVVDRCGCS


Key:
[1] = target: T1, cynomolgus monkey FcγRIIa1 …; experiment: SPR; FcgR bound per captured antibody, normalized to SG1
Method: (§1) The kinetic analysis of interactions between these antibodies and FcγR was carried out using BIACORE® T200 or BIACORE® 4000 (GE Healthcare). HBS-EP+ (GE Healthcare) was used as the running buffer, and the measurement temperature was set to 25° C. A chip produced by immobilizing Protein A. Protein A/G or mouse anti-human IgG kappa light chain (BD Biosciences) onto a Series S Sensor Chip CM4 or CM5 (GE Healthcare) by the amine-coupling method was used. […] After the measurement, the antibody captured on the chip was washed off by allowing reaction with 10 mM glycine-HCl, pH1.5 and 25 mM NaOH so that the chip was regenerated and used repeatedly. The sensorgrams obtained as measurement results were analyzed by the 1:1 Langmuir binding model using the BIACORE® Evaluation Software to calculate the binding rate constant ka (L/mol/s) and dissociation rate constant kd (l/s), and the dissociation constant KD (mol/L) was calculated from these values. […] Regarding such interactions, KD values were calculated using the following 1:1 binding model described in BIACORE® T100 Software Handbook BR1006-48 Edition AE.
(§2) The value of the amount of FcγR binding was obtained by dividing the amount of FcγR bound by the amount of each antibody captured.

[2] = target: T2, cynomolgus monkey FcγRIIa2 …; experiment: as above
Method: as §1, §2

[3] = target: T3, cynomolgus monkey FcγRIIb extracellular …; experiment: as above
Method: as §1, §2

[4] = target: T4, cynomolgus monkey FcγRIIa3 …; experiment: as above
Method: as §1, §2

[5] = target: T5, cynomolgus monkey FcγRIIIaS …; experiment: as above
Method: as §1, §2

Human latent myostatin = target: T6, Human latent myostatin; experiment: SPR (BIACORE T200), 37 C, pH7.4, avidity condition (capture 185 RU), 1:1 fit; pH 7.4
Method: The kinetic parameters of anti-latent myostatin antibodies against human, cynomolgus monkey (cyno), and mouse latent myostatin were assessed at 37° C. at pH7.4 using a BIACORE® T200 instrument (GE Healthcare). ProA/G (Pierce) was immobilized onto all flow cells of a CM4 chip using amine coupling kit (GE Healthcare). Anti-latent myostatin antibody and analytes were prepared in ACES pH7.4 (20 mM ACES, 150 mM NaCl, 1.2 mM CaCl₂), 0.05% TWEEN® 20, 0.005% NaN₃). […] Then human, cyno, or mouse latent myostatin was injected at 3.125 to 50 nM prepared by two-fold serial dilution, followed by dissociation. The sensor surface was regenerated with 25 mM NaOH. Kinetic parameters were determined by processing and fitting the data to a 1:1 binding model using BIACORE® T200 Evaluation software, version 2.0 (GE Healthcare).
All experimental settings were the same as in Example 7, except that measurements were also performed in ACES pH5.8 buffer in addition to ACES pH7.4 condition. Some antibodies were only measured against human latent myostatin. Antibody capture level was aimed at 185 RU and 18.5 RU, for avidity and affinity assay, respectively. Kinetic parameters were determined using 1:1 Binding fitting using BIACORE® T200 Evaluation software, version 2.0 (GE Healthcare).

amount of FcgR binding (SG1 = 100) [1] [SG1 = 100] | amount of FcgR binding (SG1 = 100) [2] [SG1 = 100] | amount of FcgR binding (SG1 = 100) [3] [SG1 = 100] | amount of FcgR binding (SG1 = 100) [4] [SG1 = 100] | amount of FcgR binding (SG1 = 100) [5] [SG1 = 100] | Kd (Human latent myostatin) [nM] | koff (Human latent myostatin) [s⁻¹] | kon (Human latent myostatin) [M⁻¹ s⁻¹] | Binder
83 | 86 | 85 | 62 | 15 |  |  |  | M103205H795-MY001/M103202L889-SK1 (antibody, human IgG1, kappa, also called G236N) heavy: not shown light: DIVMTQSPATLSLSPGERATLSCTSSQSVYHANWLSWFQQKPGQPPKLLIYWASTLAYGVPSRFSGSGSGTDFTLTISSLQPEDAATYYCAGGYGGGRYAFGQGTKVEIKRTVAAPSVFIFPPSDEQLKSGTASVVCLLNNFYPREAKVQWKVDNALQSGNSQESVTEQDSKDSTYSLSSTLTLSKADYEKHKVYACEVTHQGLSSPVTKSFNRGEC
13 | 14 | 12 | 21 | 24 |  |  |  | M103205H795-SG173/M103202L889-SK1 (antibody, human IgG1, kappa, also called S267L) heavy: not shown light: DIVMTQSPATLSLSPGERATLSCTSSQSVYHANWLSWFQQKPGQPPKLLIYWASTLAYGVPSRFSGSGSGTDFTLTISSLQPEDAATYYCAGGYGGGRYAFGQGTKVEIKRTVAAPSVFIFPPSDEQLKSGTASVVCLLNNFYPREAKVQWKVDNALQSGNSQESVTEQDSKDSTYSLSSTLTLSKADYEKHKVYACEVTHQGLSSPVTKSFNRGEC
10 | 10 |  | 17 | 5 |  |  |  | M103205H795-SG166/M103202L889-SK1 (antibody, human IgG1, kappa, also called G237D) heavy: not shown light: DIVMTQSPATLSLSPGERATLSCTSSQSVYHANWLSWFQQKPGQPPKLLIYWASTLAYGVPSRFSGSGSGTDFTLTISSLQPEDAATYYCAGGYGGGRYAFGQGTKVEIKRTVAAPSVFIFPPSDEQLKSGTASVVCLLNNFYPREAKVQWKVDNALQSGNSQESVTEQDSKDSTYSLSSTLTLSKADYEKHKVYACEVTHQGLSSPVTKSFNRGEC
16 | 15 | 18 | 21 | 12 |  |  |  | M103205H795-SG170/M103202L889-SK1 (antibody, human IgG1, kappa, also called P238Q) heavy: not shown light: DIVMTQSPATLSLSPGERATLSCTSSQSVYHANWLSWFQQKPGQPPKLLIYWASTLAYGVPSRFSGSGSGTDFTLTISSLQPEDAATYYCAGGYGGGRYAFGQGTKVEIKRTVAAPSVFIFPPSDEQLKSGTASVVCLLNNFYPREAKVQWKVDNALQSGNSQESVTEQDSKDSTYSLSSTLTLSKADYEKHKVYACEVTHQGLSSPVTKSFNRGEC
17 | 16 | 22 | 32 | 22 |  |  |  | M103205H795-SG169/M103202L889-SK1 (antibody, human IgG1, kappa, also called P238M) heavy: not shown light: DIVMTQSPATLSLSPGERATLSCTSSQSVYHANWLSWFQQKPGQPPKLLIYWASTLAYGVPSRFSGSGSGTDFTLTISSLQPEDAATYYCAGGYGGGRYAFGQGTKVEIKRTVAAPSVFIFPPSDEQLKSGTASVVCLLNNFYPREAKVQWKVDNALQSGNSQESVTEQDSKDSTYSLSSTLTLSKADYEKHKVYACEVTHQGLSSPVTKSFNRGEC
18 | 14 | 22 | 38 | 14 |  |  |  | M103205H795-SG167/M103202L889-SK1 (antibody, human IgG1, kappa, also called P238Y) heavy: not shown light: DIVMTQSPATLSLSPGERATLSCTSSQSVYHANWLSWFQQKPGQPPKLLIYWASTLAYGVPSRFSGSGSGTDFTLTISSLQPEDAATYYCAGGYGGGRYAFGQGTKVEIKRTVAAPSVFIFPPSDEQLKSGTASVVCLLNNFYPREAKVQWKVDNALQSGNSQESVTEQDSKDSTYSLSSTLTLSKADYEKHKVYACEVTHQGLSSPVTKSFNRGEC
21 | 16 | 28 | 30 | 13 |  |  |  | M103205H795-SG168/M103202L889-SK1 (antibody, human IgG1, kappa, also called P238E) heavy: not shown light: DIVMTQSPATLSLSPGERATLSCTSSQSVYHANWLSWFQQKPGQPPKLLIYWASTLAYGVPSRFSGSGSGTDFTLTISSLQPEDAATYYCAGGYGGGRYAFGQGTKVEIKRTVAAPSVFIFPPSDEQLKSGTASVVCLLNNFYPREAKVQWKVDNALQSGNSQESVTEQDSKDSTYSLSSTLTLSKADYEKHKVYACEVTHQGLSSPVTKSFNRGEC
14 | 17 | 16 | 27 | 31 |  |  |  | M103205H795-SG172/M103202L889-SK1 (antibody, human IgG1, kappa, also called V266F) heavy: not shown light: DIVMTQSPATLSLSPGERATLSCTSSQSVYHANWLSWFQQKPGQPPKLLIYWASTLAYGVPSRFSGSGSGTDFTLTISSLQPEDAATYYCAGGYGGGRYAFGQGTKVEIKRTVAAPSVFIFPPSDEQLKSGTASVVCLLNNFYPREAKVQWKVDNALQSGNSQESVTEQDSKDSTYSLSSTLTLSKADYEKHKVYACEVTHQGLSSPVTKSFNRGEC
 |  |  |  |  | 0.163 | 0.000217 | 1.33e+06 | MS_M103205H707-SG1/M103202L802-SK1 (antibody, human IgG1, kappa, V domains shown, also called MS1032LO04-SG1; MSLO-04) VH: QVTLKESGPVLVKPTETLTLTCTVSGIDLSHYDISWVRQAPGKGLEWVGIISYAGSTYYASWAKGRLTISKDTSKNQVVLTMTNMDPVDTATYYCARGVPAYSHGGDLWGQGTLVTVSS VL: DIVMTQSPATLSLSPGERATLSCTSSQSVYHDNWLSWFQQKPGQPPKLLIYWASTLAYGVPSRFSGSGSGTDFTLTISSLQPEDAATYYCAGGYGGGLYAFGQGTKVEIKR
